Data taken from US20100104554A1 (FUSION ANTIBODIES LIMITED A CORPORATION OF GREAT BRITIAN, published 2010).

T1: human cathepsin K (Calbiochem) (human, UniProt P43235 115-329)
T1 construct: also called CatK; Cat K
T1 sequence (looked up): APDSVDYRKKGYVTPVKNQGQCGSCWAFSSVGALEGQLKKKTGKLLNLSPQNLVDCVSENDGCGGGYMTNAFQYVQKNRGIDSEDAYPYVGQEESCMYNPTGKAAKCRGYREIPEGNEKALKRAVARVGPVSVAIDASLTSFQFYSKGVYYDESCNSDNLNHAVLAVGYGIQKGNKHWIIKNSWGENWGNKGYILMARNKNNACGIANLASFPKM


Key:
[1] = target: T2, human cathepsin S (Calbiochem) (human, UniProt P25774 115-331); assay: fluorometric enzyme inhibition assay with Z-VVR-AMC, rates taken from progress curves
T2 construct: also called CatS; Cat S
Method: Enzymatic assays were used to ascertain the ability of the rCatSPP to inhibit the peptidolytic activity of human cathepsins S, L, K, V and B (Calbiochem). Assays were performed in triplicate in 96-well microtitre plates in the presence of 100 mM sodium acetate, 1 mM ethylenediaminetetraacetate (EDTA), 0.1% Brij and 1 mM: dithiothreitol (DTT) at pH 5.5. CatS activity was monitored using the fluorigenic substrate carbobenzloxy-L-valinyl-L-vahnyl-L-arginylamido-4-methyl coumarin (Z-Val-Val-Arg-AMC, 25 μM), assays for cathepsins L, K and V were performed using carbobenzloxy-L-phenylalanyl-L-arginylamido-4-methyl coumarin (Z-Phe-Arg-AMC, 25 μM) and assays for CatB were performed using carbobenzloxy-L-arginylamido -L-arginylamido-4-methyl coumarin (Z-Arg-Arg-AMG, 25 μM) as substrates. Purified rCatSPP was added to assays as required at various concentrations (0-1000 nM). All experiments were performed using a Cytofluor® 4000 spectrofluorimeter with excitation at 395 nm and emission at 460 nm. […]
The inhibition of CatS peptidolytic activity using CatSPP Fc was measured. The rCatSPP-Fc was assessed by fluorometric assay using the fluorogenic substrate Z-VVR-AMC to determine if the species had the ability to retain its inhibition of CatS after the addition of the Fc-domain without any negative effects on the kinetics. […]

[2] = target: T2, human cathepsin S (Calbiochem); assay: cell-based or functional assay
[3] = target: T3, human cathepsin V (Calbiochem) (human, UniProt O60911 114-334); assay: fluorometric enzyme inhibition assay with Z-Phe-Arg-AMC, non-linear regression of progress curves
T3 construct: also called CatV; Cat V
T3 sequence (O60911 114-334 limits assumed): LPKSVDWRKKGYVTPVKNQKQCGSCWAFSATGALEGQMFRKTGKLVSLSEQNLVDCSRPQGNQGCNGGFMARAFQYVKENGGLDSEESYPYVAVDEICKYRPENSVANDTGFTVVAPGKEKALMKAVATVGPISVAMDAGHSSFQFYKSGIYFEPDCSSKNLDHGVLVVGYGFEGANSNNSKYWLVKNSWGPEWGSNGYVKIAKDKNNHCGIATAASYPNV
Method: (§1) Enzymatic assays were used to ascertain the ability of the rCatSPP to inhibit the peptidolytic activity of human cathepsins S, L, K, V and B (Calbiochem). Assays were performed in triplicate in 96-well microtitre plates in the presence of 100 mM sodium acetate, 1 mM ethylenediaminetetraacetate (EDTA), 0.1% Brij and 1 mM: dithiothreitol (DTT) at pH 5.5. CatS activity was monitored using the fluorigenic substrate carbobenzloxy-L-valinyl-L-vahnyl-L-arginylamido-4-methyl coumarin (Z-Val-Val-Arg-AMC, 25 μM), assays for cathepsins L, K and V were performed using carbobenzloxy-L-phenylalanyl-L-arginylamido-4-methyl coumarin (Z-Phe-Arg-AMC, 25 μM) and assays for CatB were performed using carbobenzloxy-L-arginylamido -L-arginylamido-4-methyl coumarin (Z-Arg-Arg-AMG, 25 μM) as substrates. Purified rCatSPP was added to assays as required at various concentrations (0-1000 nM). All experiments were performed using a Cytofluor® 4000 spectrofluorimeter with excitation at 395 nm and emission at 460 nm. To confirm that the rCatSPP-Fc also had the ability to inhibit the activity of CatS, flurometric assays were performed using CatS, Z-Val-Val-Arg-AMC, 25 μM) in the presence of the rCatSPP-Fc (0 nM-200 nM).
(§2) Fluorescence was monitored for 30 mins and the RFU plotted over time to generate fluorometric progress curves. […] All fluorometric assays were performed in replicates of three.

[4] = target: T1, human cathepsin K (Calbiochem); assay: as above
Method: as §1, §2

[5] = target: T4, human cathepsin L (Calbiochem) (human, UniProt P07711 114-333, limits assumed); assay: as above
T4 construct: also called CatL; Cat L
T4 sequence (P07711 114-333 limits assumed): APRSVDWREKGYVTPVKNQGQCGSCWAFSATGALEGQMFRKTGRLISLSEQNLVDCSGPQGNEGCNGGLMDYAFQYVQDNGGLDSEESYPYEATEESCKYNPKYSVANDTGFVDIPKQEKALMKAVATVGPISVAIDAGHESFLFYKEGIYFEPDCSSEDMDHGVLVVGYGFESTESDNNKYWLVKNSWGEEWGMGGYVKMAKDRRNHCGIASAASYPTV
Method: as §1, §2

Ki [1]	EC50 of MDA-MB-231 tumour cell invasion (modified Boyden chamber, Matrigel) [2]	Ki [3]	Ki [4]	Ki [5]	Binder
8.9 nM	8.3 nM	–	–	–	recombinant cathepsin S propeptide with C-terminal IgG2 Fc domain and N-terminal His-tag, expressed from pRSET A-Fc (Fc fusion, About 46 kDa, made in E. coli BL21 (DE3) pLysS; also called rCatSPP-Fc; CatSPP-Fc; not shown: N-terminal His-tag and leader from the pRSET A vector; IgG2 Fc domain engineered into the pRSET vector) QLHKDPTLDHHWHLWKKTYGKQYKEKNEEAVRRLIWEKNLKFVMLHNLEHSMGMHSYDLGMNHLGDMTSEEVMSLMSSLRVPSQWQRNITYKSNPNR
–	78 nM	4.8 nM	17.6 nM	0.62 nM	recombinant human cathepsin S propeptide (residues 17-113) with N-terminal hexahistidine tag, expressed from pQE30 (also called rCatSPP; CatSPP) MRGSHHHHHHGSQLHKDPTLDHHWHLWKKTYGKQYKEKNEEAVRRLIWEKNLKFVMLHNLEHSMGMHSYDLGMNHLGDMTSEEVMSLTSSLRVPSQWQRNITYKSNPNRVDLQPSLIS
